{"source": "patent US20160264649A1", "assay_in_all_cases": "cell-based or functional assay", "key": {"[1]": {"target": "HIV-1 AC10 Env (HIV-1)"}, "[2]": {"target": "HIV-1 CAAN Env (HIV-1)"}, "[3]": {"target": "HIV-1 CAP45 Env (HIV-1)"}, "[4]": {"target": "HIV-1 DU156 Env (HIV-1)"}, "[5]": {"target": "HIV-1 DU422 Env (HIV-1)"}, "[6]": {"target": "HIV-1 Du172 Env (HIV-1)"}, "[7]": {"target": "HIV-1 JR-FL Env E168K (HIV-1)"}, "[8]": {"target": "HIV-1 PVO.4 Env (HIV-1)"}, "[9]": {"target": "HIV-1 REJ04541 Env (HIV-1)"}, "[10]": {"target": "HIV-1 THRO.18 Env (HIV-1)"}, "[11]": {"target": "HIV-1 TR0.11 Env (HIV-1)"}, "[12]": {"target": "HIV-1 ZM214 Env (HIV-1)"}, "[13]": {"target": "HIV-1 ZM233 Env (HIV-1)"}, "[14]": {"target": "HIV-1 ZM249 Env (HIV-1)"}, "[15]": {"target": "MuLV envelope (control pseudovirus)"}, "[16]": {"target": "HIV-1 Env of isolate CMU02 (subtype AE) (HIV-1)"}, "[17]": {"target": "HIV-1 Env of isolate MG RM-C-020 (subtype C) (HIV-1)"}, "[18]": {"target": "HIV-1 Env of isolate MGRM-Chronic-B-011 (subtype B) (HIV-1)"}, "[19]": {"target": "HIV-1 Env of isolate MGRM-F1-014 (subtype F) (HIV-1)"}, "[20]": {"target": "HIV-1 Env of pseudovirus isolate MGRM-G-004 (subtype G) (HIV-1)"}, "[21]": {"target": "envelope of aMLV pseudovirus (negative control)"}}}
{"substance": "1443_C16 (PG16) (TCN-116) (antibody)", "values": [{"measurement": "IC50, TZM-bl pseudovirus neutralization", "setting": "[1]", "result": "< 0.01", "unit": "µg/mL"}, {"measurement": "IC50, TZM-bl pseudovirus neutralization", "setting": "[2]", "result": 6.37, "unit": "µg/mL"}, {"measurement": "IC50, TZM-bl pseudovirus neutralization", "setting": "[3]", "result": "< 0.01", "unit": "µg/mL"}, {"measurement": "IC50, TZM-bl pseudovirus neutralization", "setting": "[4]", "result": "< 0.01", "unit": "µg/mL"}, {"measurement": "IC50, TZM-bl pseudovirus neutralization", "setting": "[5]", "result": 0.59, "unit": "µg/mL"}, {"measurement": "IC50, TZM-bl pseudovirus neutralization", "setting": "[6]", "result": "< 0.01", "unit": "µg/mL"}, {"measurement": "IC50, TZM-bl pseudovirus neutralization", "setting": "[7]", "result": 0.006, "unit": "µg/mL"}, {"measurement": "IC50, TZM-bl pseudovirus neutralization", "setting": "[8]", "result": 12.3, "unit": "µg/mL"}, {"measurement": "IC50, TZM-bl pseudovirus neutralization", "setting": "[9]", "result": "< 0.01", "unit": "µg/mL"}, {"measurement": "IC50, TZM-bl pseudovirus neutralization", "setting": "[10]", "result": 2.19, "unit": "µg/mL"}, {"measurement": "IC50, TZM-bl pseudovirus neutralization", "setting": "[11]", "result": 3.61, "unit": "µg/mL"}, {"measurement": "IC50, TZM-bl pseudovirus neutralization", "setting": "[12]", "result": "> 25", "unit": "µg/mL"}, {"measurement": "IC50, TZM-bl pseudovirus neutralization", "setting": "[13]", "result": "< 0.01", "unit": "µg/mL"}, {"measurement": "IC50, TZM-bl pseudovirus neutralization", "setting": "[14]", "result": "< 0.01", "unit": "µg/mL"}, {"measurement": "IC50, TZM-bl pseudovirus neutralization", "setting": "[15]", "result": "> 25", "unit": "µg/mL"}]}
{"substance": "PGV04 (antibody)", "values": [{"measurement": "IC50 (pseudovirus neutralization)", "setting": "[16]", "result": 1.24, "unit": "µg/mL"}, {"measurement": "IC50 (µg/mL), pseudovirus neutralization", "setting": "[17]", "result": 0.112, "unit": "µg/mL"}, {"measurement": "IC50", "setting": "[18]", "result": 0.497, "unit": "µg/mL"}, {"measurement": "IC50 (pseudovirus neutralization)", "setting": "[19]", "result": 0.02, "unit": "µg/mL"}, {"measurement": "IC50", "setting": "[20]", "result": "> 50", "unit": "µg/mL"}, {"measurement": "IC50", "setting": "[21]", "result": "> 50", "unit": "µg/mL"}]}
{"substance": "VRC01 (antibody)", "values": [{"measurement": "IC50 (pseudovirus neutralization)", "setting": "[16]", "result": 0.515, "unit": "µg/mL"}, {"measurement": "IC50", "setting": "[17]", "result": 0.396, "unit": "µg/mL"}, {"measurement": "IC50", "setting": "[18]", "result": 0.587, "unit": "µg/mL"}, {"measurement": "IC50 (pseudovirus neutralization)", "setting": "[19]", "result": 0.056, "unit": "µg/mL"}, {"measurement": "IC50", "setting": "[20]", "result": "> 50", "unit": "µg/mL"}, {"measurement": "IC50", "setting": "[21]", "result": "> 50", "unit": "µg/mL"}]}
